Measurements from patent US20140093496A1 (Chugai, published 2014).

T1: FcγRIIa type R extracellular domain with C-terminal His tag (human, UniProt P12318 34-217)
T1 construct: extracellular domain; also called FcgRIIaR; FcγRIIaR
T1 sequence (looked up): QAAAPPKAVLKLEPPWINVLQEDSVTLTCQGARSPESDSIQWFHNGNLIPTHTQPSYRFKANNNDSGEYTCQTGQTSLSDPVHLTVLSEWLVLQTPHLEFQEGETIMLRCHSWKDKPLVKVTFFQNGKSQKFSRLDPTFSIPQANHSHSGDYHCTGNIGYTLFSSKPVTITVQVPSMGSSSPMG


Columns and labels:
[1] = molecular target: T1, FcγRIIa type R extracellular domain …; experiment: SPR (Biacore)
Description: (§1) IL6R-L was utilized as the common antibody L chain for all of the antibodies, the antibodies were expressed and purified according to the method of Reference Example 1, and binding to each of the FcγRs (FcγRIa, FcγRIIa H type, FcγRIIa R type, FcγRIIb, and FcγRIIIa V type) was comprehensively evaluated by the method of Reference Example 2.
(§2) Furthermore, KD(IIaR)/KD(IIb) and KD(IIaH)/KD(IIb) in the table respectively represent the value obtained by dividing the KD value of each variant for FcγRIIaR by the KD value of each variant for FcγRIIb, and the value obtained by dividing the KD value of each variant for FcγRIIaH by the KD value of each variant for FcγRIIb. KD(IIb) of the parent polypeptide/KD(IIb) of the altered polypeptide refers to the value obtained by dividing the KD value of the parent polypeptide for FcγRIIb by the KD value of each variant for FcγRIIb.

[2] = molecular target: T2, FcγRIa extracellular domain with C-terminal His tag (human, UniProt P12314 16-292); experiment: SPR (Biacore)
T2 construct: also called FcgRIa
T2 sequence (P12314 16-292): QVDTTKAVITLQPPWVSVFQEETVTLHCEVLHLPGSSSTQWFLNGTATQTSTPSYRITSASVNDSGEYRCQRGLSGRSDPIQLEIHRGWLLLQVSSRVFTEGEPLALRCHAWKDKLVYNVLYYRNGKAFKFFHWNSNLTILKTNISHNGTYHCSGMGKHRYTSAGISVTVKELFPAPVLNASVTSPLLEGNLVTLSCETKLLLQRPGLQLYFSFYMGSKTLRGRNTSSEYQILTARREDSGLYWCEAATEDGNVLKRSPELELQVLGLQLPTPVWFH
Description: as §1, §2

[3] = molecular target: T3, FcγRIIIa type V extracellular domain, C-terminal His tag (human, UniProt P08637 17-208); experiment: SPR (Biacore), antibody captured on chip, FcγR extracellular domain as analyte; 1:1 kinetic fit or Equation 2 for weak binding
T3 construct: extracellular domain; also called FcgRIIIaV; FcγRIIIaV; not shown: His tag at the C terminus
T3 sequence (P08637 17-208 F176V): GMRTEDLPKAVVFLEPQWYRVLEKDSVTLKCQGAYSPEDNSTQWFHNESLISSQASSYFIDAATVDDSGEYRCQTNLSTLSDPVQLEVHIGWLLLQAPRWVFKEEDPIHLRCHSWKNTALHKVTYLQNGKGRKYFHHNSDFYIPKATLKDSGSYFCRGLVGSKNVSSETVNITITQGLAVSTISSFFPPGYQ
Description: as §1, §2

Binder	Kd [1] [µM]	Kd [2] [µM]	Kd [3] [µM]
IL6R-BP203/IL6R-L (antibody, human IgG1, kappa, G237D/P238D/P271G/A330R (EU) in IL6R-B3; copies: 2 + 2) heavy: QVQLQESGPGLVKPSETLSLTCAVSGHSISHDHAWSWVRQPPGEGLEWIGFISYSGITNYNPSLQGRVTISRDNSKNTLYLQMNSLRAEDTAVYYCARSLARTTAMDYWGEGTLVTVSSASTKGPSVFPLAPSSKSTSGGTAALGCLVKDYFPEPVTVSWNSGALTSGVHTFPAVLQSSGLYSLSSVVTVPSSSLGTQTYICNVNHKPSNTKVDKKVEPKSCDKTHTCPPCPAPELLGDDSVFLFPPKPKDTLMISRTPEVTCVVVDVSHEDGEVKFNWYVDGVEVHNAKTKPREEQYNSTYRVVSVLTVLHQDWLNGKEYKCKVSNKALPRPIEKTISKAKGQPREPQVYTLPPSRDELTKNQVSLTCLVKGFYPSDIAVEWESNGQPENNYKTTPPVLDSDGSFFLYSKLTVDKSRWQQGNVFSCSVMHEALHNHYTQESLSLSP light: not shown	0.99	0.18	
IL6R-BP213/IL6R-L (antibody, human IgG1, kappa, Anti-human IL-6 receptor IgG1) heavy: QVQLQESGPGLVKPSETLSLTCAVSGHSISHDHAWSWVRQPPGEGLEWIGFISYSGITNYNPSLQGRVTISRDNSKNTLYLQMNSLRAEDTAVYYCARSLARTTAMDYWGEGTLVTVSSASTKGPSVFPLAPSSKSTSGGTAALGCLVKDYFPEPVTVSWNSGALTSGVHTFPAVLQSSGLYSLSSVVTVPSSSLGTQTYICNVNHKPSNTKVDKKVEPKSCDKTHTCPPCPAPDLLGGDSVFLFPPKPKDTLMISRTPEVTCVVVDVSDEDGEVKFNWYVDGVEVHNAKTKPREEQYNSTYRVVSVLTVLHQDWLNGKEYKCKVSNKALPRPIEKTISKAKGQPREPQVYTLPPSRDELTKNQVSLTCLVKGFYPSDIAVEWESNGQPENNYKTTPPVLDSDGSFFLYSKLTVDKSRWQQGNVFSCSVMHEALHNHYTQESLSLSP light: not shown			63
IL6R-BP195/IL6R-L (antibody, human IgG1, kappa, Anti-human IL-6 receptor IgG1) heavy: QVQLQESGPGLVKPSETLSLTCAVSGHSISHDHAWSWVRQPPGEGLEWIGFISYSGITNYNPSLQGRVTISRDNSKNTLYLQMNSLRAEDTAVYYCARSLARTTAMDYWGEGTLVTVSSASTKGPSVFPLAPSSKSTSGGTAALGCLVKDYFPEPVTVSWNSGALTSGVHTFPAVLQSSGLYSLSSVVTVPSSSLGTQTYICNVNHKPSNTKVDKKVEPKSCDKTHTCPPCPAPDYLGDDSVFLFPPKPKDTLMISRTPEVTCVVVDVSDEDGEVKFNWYVDGVEVHNAKTKPREEQDNSTYRVVSVLTVLHQDWLNGKEYKCKVSNAALPKPIEKTISKAKGQPREPQVYTLPPSRDELTKNQVSLTCLVKGFYPSDIAVEWESNGQPENNYKTTPPVLDSDGSFFLYSKLTVDKSRWQQGNVFSCSVMHEALHNHYTQESLSLSP light: not shown			31
IL6R-BP196/IL6R-L (antibody, human IgG1, kappa, Anti-human IL-6 receptor IgG1) heavy: QVQLQESGPGLVKPSETLSLTCAVSGHSISHDHAWSWVRQPPGEGLEWIGFISYSGITNYNPSLQGRVTISRDNSKNTLYLQMNSLRAEDTAVYYCARSLARTTAMDYWGEGTLVTVSSASTKGPSVFPLAPSSKSTSGGTAALGCLVKDYFPEPVTVSWNSGALTSGVHTFPAVLQSSGLYSLSSVVTVPSSSLGTQTYICNVNHKPSNTKVDKKVEPKSCDKTHTCPPCPAPEYLGGDSVFLFPPKPKDTLMISRTPEVTCVVVDVSDEDGEVKFNWYVDGVEVHNAKTKPREEQYNSTYRVVSVLTVLHQDWLNGKEYKCKVSNAALPKPIEKTISKAKGQPREPQVYTLPPSRDELTKNQVSLTCLVKGFYPSDIAVEWESNGQPENNYKTTPPVLDSDGSFFLYSKLTVDKSRWQQGNVFSCSVMHEALHNHYTQESLSLSP light: not shown			51
IL6R-BP197/IL6R-L (antibody, human IgG1, kappa, Anti-human IL-6 receptor IgG1) heavy: QVQLQESGPGLVKPSETLSLTCAVSGHSISHDHAWSWVRQPPGEGLEWIGFISYSGITNYNPSLQGRVTISRDNSKNTLYLQMNSLRAEDTAVYYCARSLARTTAMDYWGEGTLVTVSSASTKGPSVFPLAPSSKSTSGGTAALGCLVKDYFPEPVTVSWNSGALTSGVHTFPAVLQSSGLYSLSSVVTVPSSSLGTQTYICNVNHKPSNTKVDKKVEPKSCDKTHTCPPCPAPDYLGDDSVFLFPPKPKDTLMISRTPEVTCVVVDVSDEDGEVKFNWYVDGVEVHNAKTKPREEQDNSTYRVVSVLTVLHQDWLNGKEYKCKVSNDALPKPIEKTISKAKGQPREPQVYTLPPSRDELTKNQVSLTCLVKGFYPSDIAVEWESNGQPENNYKTTPPVLDSDGSFFLYSKLTVDKSRWQQGNVFSCSVMHEALHNHYTQESLSLSP light: not shown			33
IL6R-BP198/IL6R-L (antibody, human IgG1, kappa, Anti-human IL-6 receptor IgG1) heavy: QVQLQESGPGLVKPSETLSLTCAVSGHSISHDHAWSWVRQPPGEGLEWIGFISYSGITNYNPSLQGRVTISRDNSKNTLYLQMNSLRAEDTAVYYCARSLARTTAMDYWGEGTLVTVSSASTKGPSVFPLAPSSKSTSGGTAALGCLVKDYFPEPVTVSWNSGALTSGVHTFPAVLQSSGLYSLSSVVTVPSSSLGTQTYICNVNHKPSNTKVDKKVEPKSCDKTHTCPPCPAPDYLGGDSVFLFPPKPKDTLMISRTPEVTCVVVDVSDEDGEVKFNWYVDGVEVHNAKTKPREEQYNSTYRVVSVLTVLHQDWLNGKEYKCKVSNAALPKPIEKTISKAKGQPREPQVYTLPPSRDELTKNQVSLTCLVKGFYPSDIAVEWESNGQPENNYKTTPPVLDSDGSFFLYSKLTVDKSRWQQGNVFSCSVMHEALHNHYTQESLSLSP light: not shown			44
IL6R-BP199/IL6R-L (antibody, human IgG1, kappa, Anti-human IL-6 receptor IgG1) heavy: QVQLQESGPGLVKPSETLSLTCAVSGHSISHDHAWSWVRQPPGEGLEWIGFISYSGITNYNPSLQGRVTISRDNSKNTLYLQMNSLRAEDTAVYYCARSLARTTAMDYWGEGTLVTVSSASTKGPSVFPLAPSSKSTSGGTAALGCLVKDYFPEPVTVSWNSGALTSGVHTFPAVLQSSGLYSLSSVVTVPSSSLGTQTYICNVNHKPSNTKVDKKVEPKSCDKTHTCPPCPAPDLLGGDSVFLFPPKPKDTLMISRTPEVTCVVVDVSHEDPEVKFNWYVDGVEVHNAKTKPREEQYNSTYRVVSVLTVLHQDWLNGKEYKCKVSNDALPRPIEKTISKAKGQPREPQVYTLPPSRDELTKNQVSLTCLVKGFYPSDIAVEWESNGQPENNYKTTPPVLDSDGSFFLYSKLTVDKSRWQQGNVFSCSVMHEALHNHYTQESLSLSP light: not shown			61
IL6R-BP203/IL6R-L (antibody, human IgG1, kappa, Anti-human IL-6 receptor IgG1) heavy: QVQLQESGPGLVKPSETLSLTCAVSGHSISHDHAWSWVRQPPGEGLEWIGFISYSGITNYNPSLQGRVTISRDNSKNTLYLQMNSLRAEDTAVYYCARSLARTTAMDYWGEGTLVTVSSASTKGPSVFPLAPSSKSTSGGTAALGCLVKDYFPEPVTVSWNSGALTSGVHTFPAVLQSSGLYSLSSVVTVPSSSLGTQTYICNVNHKPSNTKVDKKVEPKSCDKTHTCPPCPAPELLGDDSVFLFPPKPKDTLMISRTPEVTCVVVDVSHEDGEVKFNWYVDGVEVHNAKTKPREEQYNSTYRVVSVLTVLHQDWLNGKEYKCKVSNKALPRPIEKTISKAKGQPREPQVYTLPPSRDELTKNQVSLTCLVKGFYPSDIAVEWESNGQPENNYKTTPPVLDSDGSFFLYSKLTVDKSRWQQGNVFSCSVMHEALHNHYTQESLSLSP light: not shown			72
IL6R-BP206/IL6R-L (antibody, human IgG1, kappa, Anti-human IL-6 receptor IgG1) heavy: QVQLQESGPGLVKPSETLSLTCAVSGHSISHDHAWSWVRQPPGEGLEWIGFISYSGITNYNPSLQGRVTISRDNSKNTLYLQMNSLRAEDTAVYYCARSLARTTAMDYWGEGTLVTVSSASTKGPSVFPLAPSSKSTSGGTAALGCLVKDYFPEPVTVSWNSGALTSGVHTFPAVLQSSGLYSLSSVVTVPSSSLGTQTYICNVNHKPSNTKVDKKVEPKSCDKTHTCPPCPAPDLLGGDSVFLFPPKPKDTLMISRTPEVTCVVVDVSHEDGEVKFNWYVDGVEVHNAKTKPREEQYNSTYRVVSVLTVLHQDWLNGKEYKCKVSNKALPRPIEKTISKAKGQPREPQVYTLPPSRDELTKNQVSLTCLVKGFYPSDIAVEWESNGQPENNYKTTPPVLDSDGSFFLYSKLTVDKSRWQQGNVFSCSVMHEALHNHYTQESLSLSP light: not shown			69
IL6R-BP207/IL6R-L (antibody, human IgG1, kappa, Anti-human IL-6 receptor IgG1) heavy: QVQLQESGPGLVKPSETLSLTCAVSGHSISHDHAWSWVRQPPGEGLEWIGFISYSGITNYNPSLQGRVTISRDNSKNTLYLQMNSLRAEDTAVYYCARSLARTTAMDYWGEGTLVTVSSASTKGPSVFPLAPSSKSTSGGTAALGCLVKDYFPEPVTVSWNSGALTSGVHTFPAVLQSSGLYSLSSVVTVPSSSLGTQTYICNVNHKPSNTKVDKKVEPKSCDKTHTCPPCPAPDLLGGDSVFLFPPKPKDTLMISRTPEVTCVVVDVSHEDPEVKFNWYVDGVEVHNAKTKPREEQYNSTYRVVSVLTVLHQDWLNGKEYKCKVSNKALPRPIEKTISKAKGQPREPQVYTLPPSRDELTKNQVSLTCLVKGFYPSDIAVEWESNGQPENNYKTTPPVLDSDGSFFLYSKLTVDKSRWQQGNVFSCSVMHEALHNHYTQESLSLSP light: not shown			65
IL6R-BP208/IL6R-L (antibody, human IgG1, kappa, Anti-human IL-6 receptor IgG1) heavy: QVQLQESGPGLVKPSETLSLTCAVSGHSISHDHAWSWVRQPPGEGLEWIGFISYSGITNYNPSLQGRVTISRDNSKNTLYLQMNSLRAEDTAVYYCARSLARTTAMDYWGEGTLVTVSSASTKGPSVFPLAPSSKSTSGGTAALGCLVKDYFPEPVTVSWNSGALTSGVHTFPAVLQSSGLYSLSSVVTVPSSSLGTQTYICNVNHKPSNTKVDKKVEPKSCDKTHTCPPCPAPDLLGDDSVFLFPPKPKDTLMISRTPEVTCVVVDVSDEDGEVKFNWYVDGVEVHNAKTKPREEQYNSTYRVVSVLTVLHQDWLNGKEYKCKVSNKALPRPIEKTISKAKGQPREPQVYTLPPSRDELTKNQVSLTCLVKGFYPSDIAVEWESNGQPENNYKTTPPVLDSDGSFFLYSKLTVDKSRWQQGNVFSCSVMHEALHNHYTQESLSLSP light: not shown			53
